Values quoted from earlier work, collected in patent publication US4183849A, “Therapeutic insulin preparation and a process for the production of a stable insulin preparation with protracted effect” (Nordisk Insulinlaboratorium, priority 1975, dated 1980).

Conditions: impurities of recrystallized insulin, stated as known

proinsulin
antigenicity: highly antigenic
